Source: US20260125454A1 (SHANGHAI JUNSHI BIOSCIENCES, published 2026)

Molecular target: T1, Biotin-huCGRPaSA (human, not fully specified; biotin (position not given))
T1 construct: exact construct ('aSA') not explained; also called Biotin CGRPaSA; full-length (1-37) CGRP
T1 peptide: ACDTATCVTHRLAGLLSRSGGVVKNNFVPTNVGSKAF
Assay: ELISA, supernatant; relative to chimeric C245
Protocol: Biotin CGRPaSA was diluted with PBS (Hyclone) to 1.0 μg/mL, and the dilution was added to a microplate at 100 μL/well. The plate was let stand in an incubator at 37° C. and coated for 90 min and then washed, and 2% BSA was added to the plate at 200 μL/well. The plate was incubated in an incubator at 37° C. for 90 min and then washed. The humanized antibodies in Table 8 and the reference antibody (chimeric antibody C245) were diluted to 1000 ng/mL with a diluent (2% BSA) with a dilution factor of not more than 10. Then, the chimeric antibodies and the reference antibody were serially 2.5-fold diluted on a sample dilution plate. All the chimeric antibody solutions and the reference antibody solution were added into plates at 100 μL/well, and the plates were incubated in a thermostat incubator at 37° C. for 60 min and washed. An HRP-conjugated goat anti-human antibody IgG (manufacturer: Sigma, Cat. No. A0170; Fc specificity) was diluted 5000-fold with 2% BSA and added into the plates at 100 μL/well, and the plates were incubated in the thermostat incubator at 37° C. for 60 min and washed. Chromogenic reagent TMB was carefully added at 100 μL/well to avoid bubbles, and the system was incubated at 37° C. for 15 min away from light for chromogenic reaction. Finally, a 2 M hydrochloric acid solution was added at 100 μL/well to stop the reaction while avoiding bubbles, and the plates were read on a microplate reader within 10 min (wavelength: 450/620 nm).

Binder | Relative binding activity, % [%]
hu132 (antibody, V domains shown, 2B8 HC1-3/1A2 LC2-2) VH: QVQLVQSGAEVKKPGASVKVSCKASGYTFTDYNMHWVRQAPGQGLEWMGNIYPYNAGTVYNQKFNNRVTLTVDTSSSTAYMELSRLRSDDTAVYYCAREGLGGYWGQGTLVTVSS VL: DIVLTQSPASLAVSPGQRATITCKASQNIDYDGYAYLNWYQQKPGQPPKVLIYSVFNLESGVPARFSGSGSGTDFTLTINPVEADDTANYYCQQSNEFPYTFGQGTKLEIK | 108
hu213 (antibody, V domains shown, 3H10 HC-2/1F5 LC1-1) VH: QVQLVQSGAEVKKPGASVKVSCKASGYTFTDYNMHWVRQAPGQGLEWMGYIYPYNGHTVYNQKFRNRVTLTVDTSSSTAYMELRSLRSDDTAVYYCAREGLGGYWGQGTLVTVSS VL: EIVLTQSPATLSLSPGERATLSCKASQNIDFDGYAYMNWYQQKPGQAPRVLIYSVFNLESGIPARFSGSGSGTDFTLTISSLEPEDFAVYYCQQSHEVPYTFGQGTKLEIK | 38
hu5 (antibody, V domains shown, 1B2 HC-1/1F5 LC1-1) VH: QVQLVQSGAEVKKPGASVKVSCKASGYTFTDYNMHWVRQAPGQGLEWMGYIFPYNGVAVYNRKFRSRVTLTIDTSSSTAYMELRSLRSDDTAVYYCAREGLGGYWGQGTLVTVSS VL: EIVLTQSPATLSLSPGERATLSCKASQNIDFDGYAYMNWYQQKPGQAPRVLIYSVFNLESGIPARFSGSGSGTDFTLTISSLEPEDFAVYYCQQSHEVPYTFGQGTKLEIK | 88
hu3 (antibody, V domains shown, 1B2 HC-1/1A2 LC2-3) VH: QVQLVQSGAEVKKPGASVKVSCKASGYTFTDYNMHWVRQAPGQGLEWMGYIFPYNGVAVYNRKFRSRVTLTIDTSSSTAYMELRSLRSDDTAVYYCAREGLGGYWGQGTLVTVSS VL: EIVLTQSPATLSLSPGERATLSCKASQNIDYDGYAYLNWYQQKPGQAPRVLIYSVFNLESGIPARFSGSGSGTDFTLTISSLEPEDFAVYYCQQSNEFPYTFGQGTKLEIK | 41
hu157 (antibody, V domains shown, 3E5 HC-2/1A2 LC2-1) VH: QVQLVQSGAEVKKPGASVKVSCKASGYTFTDYNMHWVRQAPGQRLEWMGYISPYNGGTAYNQKFKFRVTLTVDTSSSTAYMELSSLRSEDTAVYYCAREGLGGYWGQGTLVTVSS VL: DIVLTQSPASLAVSPGQRATITCKASQNIDYDGYAYLNWYQQKPGQPPKVLIYSVFNLESGVPARFSGSGSGTDFTLTINPVEANDTANYYCQQSNEFPYTFGQGTKLEIK | 15
hu171 (antibody, V domains shown, 3E5 HC-3/1A2 LC2-2) VH: QVQLVQSGAEVKKPGASVKVSCKASGYTFTDYNMHWVRQAPGQGLEWMGYISPYNGGTAYNQKFKFRVTLTVDTSSSTAYMELSRLRSDDTVVYYCAREGLGGYWGQGTLVTVSS VL: DIVLTQSPASLAVSPGQRATITCKASQNIDYDGYAYLNWYQQKPGQPPKVLIYSVFNLESGVPARFSGSGSGTDFTLTINPVEADDTANYYCQQSNEFPYTFGQGTKLEIK | 63
hu137 (antibody, V domains shown, 2B8 HC1-3/1F5 LC1-3) VH: QVQLVQSGAEVKKPGASVKVSCKASGYTFTDYNMHWVRQAPGQGLEWMGNIYPYNAGTVYNQKFNNRVTLTVDTSSSTAYMELSRLRSDDTAVYYCAREGLGGYWGQGTLVTVSS VL: DIVLTQSPASLAVSPGQRATITCKASQNIDFDGYAYMNWYQQKPGQPPKVLIYSVFNLESGVPARFSGSGSGTDFTLTINPVEADDTANYYCQQSHEVPYTFGQGTKLEIK | 93
hu197 (antibody, V domains shown, 3H10 HC-1/1A2 LC2-2) VH: QVQLVQSGAEVKKPGASVKVSCKASGYTFTDYNMHWVRQAPGQGLEWMGYIYPYNGHTVYNQKFRNRVTMTVDTSSSTAYMELRSLRSDDTAVYYCAKEGLGGYWGQGTLVTVSS VL: DIVLTQSPASLAVSPGQRATITCKASQNIDYDGYAYLNWYQQKPGQPPKVLIYSVFNLESGVPARFSGSGSGTDFTLTINPVEADDTANYYCQQSNEFPYTFGQGTKLEIK | 49
hu144 (antibody, V domains shown, 3E5 HC-1/1A2 LC2-1) VH: QVQLVQSGAEVKKPGASVKVSCKTSGYTFTDYNMHWVRQAPGQRLEWMGYISPYNGGTAYNQKFKFRVTLTVDTSSSTAYMELSSLRSEDTAVYYCAREGLGGYWGQGTLVTVSS VL: DIVLTQSPASLAVSPGQRATITCKASQNIDYDGYAYLNWYQQKPGQPPKVLIYSVFNLESGVPARFSGSGSGTDFTLTINPVEANDTANYYCQQSNEFPYTFGQGTKLEIK | 101
hu209 (antibody, V domains shown, 3H10 HC-2/1A2 LC2-1) VH: QVQLVQSGAEVKKPGASVKVSCKASGYTFTDYNMHWVRQAPGQGLEWMGYIYPYNGHTVYNQKFRNRVTLTVDTSSSTAYMELRSLRSDDTAVYYCAREGLGGYWGQGTLVTVSS VL: DIVLTQSPASLAVSPGQRATITCKASQNIDYDGYAYLNWYQQKPGQPPKVLIYSVFNLESGVPARFSGSGSGTDFTLTINPVEANDTANYYCQQSNEFPYTFGQGTKLEIK | 64
hu196 (antibody, V domains shown, 3H10 HC-1/1A2 LC2-1) VH: QVQLVQSGAEVKKPGASVKVSCKASGYTFTDYNMHWVRQAPGQGLEWMGYIYPYNGHTVYNQKFRNRVTMTVDTSSSTAYMELRSLRSDDTAVYYCAKEGLGGYWGQGTLVTVSS VL: DIVLTQSPASLAVSPGQRATITCKASQNIDYDGYAYLNWYQQKPGQPPKVLIYSVFNLESGVPARFSGSGSGTDFTLTINPVEANDTANYYCQQSNEFPYTFGQGTKLEIK | 45
hu170 (antibody, V domains shown, 3E5 HC-3/1A2 LC2-1) VH: QVQLVQSGAEVKKPGASVKVSCKASGYTFTDYNMHWVRQAPGQGLEWMGYISPYNGGTAYNQKFKFRVTLTVDTSSSTAYMELSRLRSDDTVVYYCAREGLGGYWGQGTLVTVSS VL: DIVLTQSPASLAVSPGQRATITCKASQNIDYDGYAYLNWYQQKPGQPPKVLIYSVFNLESGVPARFSGSGSGTDFTLTINPVEANDTANYYCQQSNEFPYTFGQGTKLEIK | 75
hu202 (antibody, V domains shown, 3H10 HC-1/1F5 LC1-3) VH: QVQLVQSGAEVKKPGASVKVSCKASGYTFTDYNMHWVRQAPGQGLEWMGYIYPYNGHTVYNQKFRNRVTMTVDTSSSTAYMELRSLRSDDTAVYYCAKEGLGGYWGQGTLVTVSS VL: DIVLTQSPASLAVSPGQRATITCKASQNIDFDGYAYMNWYQQKPGQPPKVLIYSVFNLESGVPARFSGSGSGTDFTLTINPVEADDTANYYCQQSHEVPYTFGQGTKLEIK | 90
hu215 (antibody, V domains shown, 3H10 HC-2/1F5 LC1-3) VH: QVQLVQSGAEVKKPGASVKVSCKASGYTFTDYNMHWVRQAPGQGLEWMGYIYPYNGHTVYNQKFRNRVTLTVDTSSSTAYMELRSLRSDDTAVYYCAREGLGGYWGQGTLVTVSS VL: DIVLTQSPASLAVSPGQRATITCKASQNIDFDGYAYMNWYQQKPGQPPKVLIYSVFNLESGVPARFSGSGSGTDFTLTINPVEADDTANYYCQQSHEVPYTFGQGTKLEIK | 94
hu158 (antibody, V domains shown, 3E5 HC-2/1A2 LC2-2) VH: QVQLVQSGAEVKKPGASVKVSCKASGYTFTDYNMHWVRQAPGQRLEWMGYISPYNGGTAYNQKFKFRVTLTVDTSSSTAYMELSSLRSEDTAVYYCAREGLGGYWGQGTLVTVSS VL: DIVLTQSPASLAVSPGQRATITCKASQNIDYDGYAYLNWYQQKPGQPPKVLIYSVFNLESGVPARFSGSGSGTDFTLTINPVEADDTANYYCQQSNEFPYTFGQGTKLEIK | 71
hu184 (antibody, V domains shown, 3E5 HC-4/1A2 LC2-2) VH: QVQLVQSGAEVKKPGASVKVSCKTSGYTFTDYNMHWVRQAPGQRLEWMGYISPYNAGTAYNQKFKFRVTLTVDTSSSTAYMELSSLRSEDTAVYYCAREGLGGYWGQGTLVTVSS VL: DIVLTQSPASLAVSPGQRATITCKASQNIDYDGYAYLNWYQQKPGQPPKVLIYSVFNLESGVPARFSGSGSGTDFTLTINPVEADDTANYYCQQSNEFPYTFGQGTKLEIK | 23
hu176 (antibody, V domains shown, 3E5 HC-3/1F5 LC1-3) VH: QVQLVQSGAEVKKPGASVKVSCKASGYTFTDYNMHWVRQAPGQGLEWMGYISPYNGGTAYNQKFKFRVTLTVDTSSSTAYMELSRLRSDDTVVYYCAREGLGGYWGQGTLVTVSS VL: DIVLTQSPASLAVSPGQRATITCKASQNIDFDGYAYMNWYQQKPGQPPKVLIYSVFNLESGVPARFSGSGSGTDFTLTINPVEADDTANYYCQQSHEVPYTFGQGTKLEIK | 65
hu163 (antibody, V domains shown, 3E5 HC-2/1F5 LC1-3) VH: QVQLVQSGAEVKKPGASVKVSCKASGYTFTDYNMHWVRQAPGQRLEWMGYISPYNGGTAYNQKFKFRVTLTVDTSSSTAYMELSSLRSEDTAVYYCAREGLGGYWGQGTLVTVSS VL: DIVLTQSPASLAVSPGQRATITCKASQNIDFDGYAYMNWYQQKPGQPPKVLIYSVFNLESGVPARFSGSGSGTDFTLTINPVEADDTANYYCQQSHEVPYTFGQGTKLEIK | 78
hu183 (antibody, V domains shown, 3E5 HC-4/1A2 LC2-1) VH: QVQLVQSGAEVKKPGASVKVSCKTSGYTFTDYNMHWVRQAPGQRLEWMGYISPYNAGTAYNQKFKFRVTLTVDTSSSTAYMELSSLRSEDTAVYYCAREGLGGYWGQGTLVTVSS VL: DIVLTQSPASLAVSPGQRATITCKASQNIDYDGYAYLNWYQQKPGQPPKVLIYSVFNLESGVPARFSGSGSGTDFTLTINPVEANDTANYYCQQSNEFPYTFGQGTKLEIK | 26
